From publication PMC6018666, “Structural basis for terminal loop recognition and stimulation of pri-miRNA-18a processing by hnRNP A1” come the findings set out here.

Data set [1] has as its target T1, UP1 (hnRNP A1 RRM1-RRM2) (UniProt P09651 1-196). In words: ITC; N=1.01; ITC: 20 mM Na phosphate pH 6.5, 100 mM NaCl, no DTT, 25 C; EMSA: 100 mM KCl, 20% glycerol, 0.2 mM EDTA, 100 mM Tris pH 8.0, 0.5 mM DTT, 0.5 mM ATP, 20 mM creatine phosphate, 3.2 mM MgCl2, 4 C; footprint: 12 mM Tris-HCl pH 7.5, 48 mM NaCl, 1.2 mM MgCl2, 37 C. The following applies: protein: recombinant; tags: His tag removed by TEV; single strand.

The target of the next data set is UP1(R75E/R88E) (UniProt P09651 1-196, R75E;R88E). The data set can be described thus: ITC; N=1.1; ITC: 20 mM Na phosphate pH 6.5, 100 mM NaCl, no DTT, 25 C; EMSA: 100 mM KCl, 20% glycerol, 0.2 mM EDTA, 100 mM Tris pH 8.0, 0.5 mM DTT, 0.5 mM ATP, 20 mM creatine phosphate, 3.2 mM MgCl2, 4 C; footprint: 12 mM Tris-HCl pH 7.5, 48 mM NaCl, 1.2 mM MgCl2, 37 C. Conditions: protein: recombinant; tags: His tag removed by TEV; single strand. For orientation: In ITC the heat of successive injections is recorded.
UP1(R75E/R88E), sequence (P09651 1-196 R75E/R88E): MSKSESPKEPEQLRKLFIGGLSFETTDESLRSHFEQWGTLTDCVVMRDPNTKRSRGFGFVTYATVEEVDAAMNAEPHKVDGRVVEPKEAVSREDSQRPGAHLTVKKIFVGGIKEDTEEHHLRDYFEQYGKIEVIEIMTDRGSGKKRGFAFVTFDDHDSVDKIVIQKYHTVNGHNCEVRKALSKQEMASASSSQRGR

Another data set addresses UP1(R75E/R88A) (UniProt P09651 1-196, R75E;R88A). In words: ITC; N=1.08; ITC: 20 mM Na phosphate pH 6.5, 100 mM NaCl, no DTT, 25 C; EMSA: 100 mM KCl, 20% glycerol, 0.2 mM EDTA, 100 mM Tris pH 8.0, 0.5 mM DTT, 0.5 mM ATP, 20 mM creatine phosphate, 3.2 mM MgCl2, 4 C; footprint: 12 mM Tris-HCl pH 7.5, 48 mM NaCl, 1.2 mM MgCl2, 37 C. The following applies: protein: recombinant; tags: His tag removed by TEV; single strand.

Data set [2] deals with T1, UP1 (hnRNP A1 RRM1-RRM2). Described as above. Conditions: protein: recombinant; tags: His tag removed by TEV; single strand.
The target in data set [3] is T2, hnRNP A1 RRM2 (UniProt P09651 94-196). In words: EMSA; ITC: 20 mM Na phosphate pH 6.5, 100 mM NaCl, no DTT, 25 C; EMSA: 100 mM KCl, 20% glycerol, 0.2 mM EDTA, 100 mM Tris pH 8.0, 0.5 mM DTT, 0.5 mM ATP, 20 mM creatine phosphate, 3.2 mM MgCl2, 4 C; footprint: 12 mM Tris-HCl pH 7.5, 48 mM NaCl, 1.2 mM MgCl2, 37 C. The following applies: protein: recombinant; tags: His tag removed by TEV; label: internal radiolabel. (A gel shift assay detects complexes by their altered migration in electrophoresis.)
T2 sequence (P09651 94-196): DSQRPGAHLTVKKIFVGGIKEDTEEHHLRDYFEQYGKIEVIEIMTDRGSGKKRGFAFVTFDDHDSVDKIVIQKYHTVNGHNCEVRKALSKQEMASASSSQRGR

Data set [4] concerns the target T1, UP1 (hnRNP A1 RRM1-RRM2). The description is as above. Conditions: protein: recombinant; tags: His tag removed by TEV; label: internal radiolabel.
For data set [5], the target named is T3, hnRNP A1 RRM1 (UniProt P09651 1-97). The description is as above. Conditions: protein: recombinant; tags: His tag removed by TEV; label: internal radiolabel.
T3 sequence (P09651 1-97): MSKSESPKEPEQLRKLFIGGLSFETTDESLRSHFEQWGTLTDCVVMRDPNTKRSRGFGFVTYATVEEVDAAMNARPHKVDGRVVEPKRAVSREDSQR
Data set [6] has as its target T1, UP1 (hnRNP A1 RRM1-RRM2). In words: ITC; not fitted by one-site model; ITC: 20 mM Na phosphate pH 6.5, 100 mM NaCl, no DTT, 25 C; EMSA: 100 mM KCl, 20% glycerol, 0.2 mM EDTA, 100 mM Tris pH 8.0, 0.5 mM DTT, 0.5 mM ATP, 20 mM creatine phosphate, 3.2 mM MgCl2, 4 C; footprint: 12 mM Tris-HCl pH 7.5, 48 mM NaCl, 1.2 mM MgCl2, 37 C. The following applies: protein: recombinant; tags: His tag removed by TEV; hairpin.

The target of data set [7] is T1, UP1 (hnRNP A1 RRM1-RRM2). The data set can be described thus: ITC; N=1.07; ITC: 20 mM Na phosphate pH 6.5, 100 mM NaCl, no DTT, 25 C; EMSA: 100 mM KCl, 20% glycerol, 0.2 mM EDTA, 100 mM Tris pH 8.0, 0.5 mM DTT, 0.5 mM ATP, 20 mM creatine phosphate, 3.2 mM MgCl2, 4 C; footprint: 12 mM Tris-HCl pH 7.5, 48 mM NaCl, 1.2 mM MgCl2, 37 C. The following applies: protein: recombinant, tags: His tag removed by TEV.

For data set [8], the target named is T2, hnRNP A1 RRM2. In words: ITC; N=1.09; text gives 6.9; ITC: 20 mM Na phosphate pH 6.5, 100 mM NaCl, no DTT, 25 C; EMSA: 100 mM KCl, 20% glycerol, 0.2 mM EDTA, 100 mM Tris pH 8.0, 0.5 mM DTT, 0.5 mM ATP, 20 mM creatine phosphate, 3.2 mM MgCl2, 4 C; footprint: 12 mM Tris-HCl pH 7.5, 48 mM NaCl, 1.2 mM MgCl2, 37 C. Conditions: protein: recombinant; tags: His tag removed by TEV; single strand.

For data set [9], the target named is T3, hnRNP A1 RRM1. The data set can be described thus: ITC; N=1.01; ITC: 20 mM Na phosphate pH 6.5, 100 mM NaCl, no DTT, 25 C; EMSA: 100 mM KCl, 20% glycerol, 0.2 mM EDTA, 100 mM Tris pH 8.0, 0.5 mM DTT, 0.5 mM ATP, 20 mM creatine phosphate, 3.2 mM MgCl2, 4 C; footprint: 12 mM Tris-HCl pH 7.5, 48 mM NaCl, 1.2 mM MgCl2, 37 C. Conditions: protein: recombinant; tags: His tag removed by TEV; single strand.

The target of data set [10] is T1, UP1 (hnRNP A1 RRM1-RRM2). In words: ITC; N=0.75; ITC: 20 mM Na phosphate pH 6.5, 100 mM NaCl, no DTT, 25 C; EMSA: 100 mM KCl, 20% glycerol, 0.2 mM EDTA, 100 mM Tris pH 8.0, 0.5 mM DTT, 0.5 mM ATP, 20 mM creatine phosphate, 3.2 mM MgCl2, 4 C; footprint: 12 mM Tris-HCl pH 7.5, 48 mM NaCl, 1.2 mM MgCl2, 37 C. Conditions: protein: recombinant; tags: His tag removed by TEV; single strand.

Data set [11] has as its target T1, UP1 (hnRNP A1 RRM1-RRM2). In words: ITC; N=0.98; ITC: 20 mM Na phosphate pH 6.5, 100 mM NaCl, no DTT, 25 C; EMSA: 100 mM KCl, 20% glycerol, 0.2 mM EDTA, 100 mM Tris pH 8.0, 0.5 mM DTT, 0.5 mM ATP, 20 mM creatine phosphate, 3.2 mM MgCl2, 4 C; footprint: 12 mM Tris-HCl pH 7.5, 48 mM NaCl, 1.2 mM MgCl2, 37 C. The following applies: protein: recombinant; tags: His tag removed by TEV; single strand.

For data set [12], the target named is T1, UP1 (hnRNP A1 RRM1-RRM2). The data set can be described thus: ITC; N=1.35; ITC: 20 mM Na phosphate pH 6.5, 100 mM NaCl, no DTT, 25 C; EMSA: 100 mM KCl, 20% glycerol, 0.2 mM EDTA, 100 mM Tris pH 8.0, 0.5 mM DTT, 0.5 mM ATP, 20 mM creatine phosphate, 3.2 mM MgCl2, 4 C; footprint: 12 mM Tris-HCl pH 7.5, 48 mM NaCl, 1.2 mM MgCl2, 37 C. Conditions: protein: recombinant; tags: His tag removed by TEV; hairpin.

Data set [13] has as its target T1, UP1 (hnRNP A1 RRM1-RRM2). In words: ITC; N=1.06; ITC: 20 mM Na phosphate pH 6.5, 100 mM NaCl, no DTT, 25 C; EMSA: 100 mM KCl, 20% glycerol, 0.2 mM EDTA, 100 mM Tris pH 8.0, 0.5 mM DTT, 0.5 mM ATP, 20 mM creatine phosphate, 3.2 mM MgCl2, 4 C; footprint: 12 mM Tris-HCl pH 7.5, 48 mM NaCl, 1.2 mM MgCl2, 37 C. Conditions: protein: recombinant; tags: His tag removed by TEV; single strand.

T1 sequence (P09651 1-196): as the sequence (P09651 1-196 R75E/R88E) above, with E75R, E88R counted along it
UP1(R75E/R88A), sequence (P09651 1-196 R75E/R88A): as the sequence (P09651 1-196 R75E/R88E) above, with E88A counted along it

Regarding AGUAGAUUAGCA (ssRNA) [12-mer], the Kd in the data set with UP1 (hnRNP A1 RRM1-RRM2) [1] is 15.5 ± 3.4 nM; in the data set with UP1(R75E/R88E), 40.1 ± 4.4 nM; with UP1(R75E/R88A), 19 ± 2.05 nM.

As to AGUAGAUUUUCA (ssRNA) [12-mer-mut2], the Kd with UP1 (hnRNP A1 RRM1-RRM2) [2] amounted to 330 ± 26.5 nM.

Turning to GUGAAGUAGAUUAGC (structured_RNA) [pri-mir-18a terminal loop RNA], the binding result with hnRNP A1 RRM2 [3] was “no binding”; with UP1 (hnRNP A1 RRM1-RRM2) [4], “binds”; with hnRNP A1 RRM1 [5], “no binding”.

Consider GGUGAAGUAGAUUAGCC (structured_RNA) [17-mer], for which the binding result in the data set with UP1 (hnRNP A1 RRM1-RRM2) [6] is reported as “binds”.

With GGUGAAGUAGAUUCGCC (structured_RNA) [17-mer(A35C)], the Kd with UP1 (hnRNP A1 RRM1-RRM2) [7] (hairpin) worked out at 3100 ± 190 nM.

On to AGUAGAU (ssRNA) [7-mer], for which the Kd was 6800 ± 140 nM with hnRNP A1 RRM2 [8], 20400 ± 1060 nM in the data set with hnRNP A1 RRM1 [9] and 3400 ± 120 nM with UP1 (hnRNP A1 RRM1-RRM2) [10].

For the molecule UUUAGAUUAGCA (ssRNA) [12-mer-mut3], in the data set with UP1 (hnRNP A1 RRM1-RRM2) [11], the Kd came to 8.33 ± 1.35 nM.

B1: pri-mir-18a 71-mer (structured_RNA)
RNA: GGUUCUAAGGUGCAUCUAGUGCAGAUAGUGAAGUAGAUUAGCAUCUACUGCCCUAAGUGCUCCUUCUGGCC
On to B1, for which the Kd with UP1 (hnRNP A1 RRM1-RRM2) [12] came out at 148 ± 8.9 nM.

As for AGUUUAUUAGCA (ssRNA) [12-mer-mut1], the Kd in the data set with UP1 (hnRNP A1 RRM1-RRM2) [13] came to 154 ± 11 nM.

With UAGAUUAGCA (ssRNA) [10-mer], the equilibrium dissociation constant (Kd) with UP1 (hnRNP A1 RRM1-RRM2) [7] (single strand) was 19.1 ± 6.73 nM.

One may read the Kd as the concentration at which binding is half-saturated.
